Target: CD22 (UniProt P20273)
Test: cell-based or functional assay

Sequence of UniProt P20273 (P20273 20-847 limits assumed): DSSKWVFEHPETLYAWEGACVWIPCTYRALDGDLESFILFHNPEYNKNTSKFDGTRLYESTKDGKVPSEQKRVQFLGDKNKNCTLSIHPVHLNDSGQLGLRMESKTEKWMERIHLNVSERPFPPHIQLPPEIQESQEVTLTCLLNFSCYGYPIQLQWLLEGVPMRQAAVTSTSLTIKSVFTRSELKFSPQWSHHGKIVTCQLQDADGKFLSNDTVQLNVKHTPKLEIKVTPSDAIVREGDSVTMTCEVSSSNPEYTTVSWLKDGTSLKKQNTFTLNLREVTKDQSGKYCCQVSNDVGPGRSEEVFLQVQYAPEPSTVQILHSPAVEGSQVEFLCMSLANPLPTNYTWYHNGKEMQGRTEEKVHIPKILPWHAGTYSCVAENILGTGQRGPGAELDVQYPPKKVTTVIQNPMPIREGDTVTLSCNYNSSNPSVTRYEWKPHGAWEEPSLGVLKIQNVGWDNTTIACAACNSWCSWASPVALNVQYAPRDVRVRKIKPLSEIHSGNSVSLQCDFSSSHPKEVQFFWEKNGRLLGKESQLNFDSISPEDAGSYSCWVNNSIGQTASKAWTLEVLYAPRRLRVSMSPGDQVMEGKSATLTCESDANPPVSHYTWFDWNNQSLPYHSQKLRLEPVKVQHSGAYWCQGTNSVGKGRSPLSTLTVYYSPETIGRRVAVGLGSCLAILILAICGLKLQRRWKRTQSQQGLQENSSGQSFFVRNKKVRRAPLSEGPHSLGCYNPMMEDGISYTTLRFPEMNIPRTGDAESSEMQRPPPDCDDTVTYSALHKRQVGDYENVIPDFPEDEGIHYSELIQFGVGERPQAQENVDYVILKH

HA22-LO10 was tested, and the IC50 (ng/ml), cytotoxic activity on CA46 was 0.38 ng/mL, the IC50 (ng/ml), cytotoxic activity on Daudi was 0.3 ng/mL and the IC50 (ng/ml), cytotoxic activity on Raji was 1.5 ng/mL. For the same substance, the activity on CA46 relative to HA22-LR was 29%, the activity on Daudi relative to HA22-LR was 60% and the activity on Raji relative to HA22-LR was 27%.
For HA22-LR, the IC50 (ng/ml), cytotoxic activity on CA46 was 0.11 ng/mL, the IC50 (ng/ml), cytotoxic activity on Daudi was 0.18 ng/mL and the IC50 (ng/ml), cytotoxic activity on Raji was 0.41 ng/mL.
